The term Kd denotes the constant that tells how readily two partners part at equilibrium. The koff is a measure of how fast the partners let go of each other. In general, kon refers to the rate constant with which the complex forms.

B5: FLAG-tagged hAng-2 (ligand)
chain: YNNFRKSMDSIGKKQYQVQHGSCSYTFLLPEMDNCRSSSSPYVSNAVQRDAPLEYDDSVQRLQVLENIMENNTQWLMKLENYIQDNMKKEMVEIQQNAVQNQTAVMIEIGTNLLNQTAEQTRKLTDVEAQVLNQTTRLELQLLEHSLSTNKLEKQILDQTSEINKLQDKNSFLEKKVLAMEDKHIIQLQSIKEEKDQLQVLVSKQNSIIEELEKKIVTATVNNSVLQKQQHDLMETVNNLLTMMSTSNSAKDPTVAKEEQISFRDCAEVFKSGHTTNGIYTLTFPNSTEEIKAYCDMEAGGGGWTIIQRREDGSVDFQRTWKEYKVGFGNPSGEYWLGNEFVSQLTNQQRYVLKIHLKDWEGNEAYSLYEHFYLSSEELNYRIHLKGLTGTAGKISSISQPGNDFSTKDGDNDKCICKCSQMLTGGWWFDACGPSNLNGMYYPQRQNTNKFNGIKWYYWKGSGYSLKATTMMIRPADF
notes: not shown: FLAG tag

The target in experiment [1] is T1, recombinant hAng-2 (C-His, R&D Systems) (human, UniProt O15123 19-496).
T1 construct: Bought protein; also called human Ang-2 protein; C-terminal histidine-tagged human Ang2 (R&D Systems); not shown: C-terminal His tag
T1 sequence: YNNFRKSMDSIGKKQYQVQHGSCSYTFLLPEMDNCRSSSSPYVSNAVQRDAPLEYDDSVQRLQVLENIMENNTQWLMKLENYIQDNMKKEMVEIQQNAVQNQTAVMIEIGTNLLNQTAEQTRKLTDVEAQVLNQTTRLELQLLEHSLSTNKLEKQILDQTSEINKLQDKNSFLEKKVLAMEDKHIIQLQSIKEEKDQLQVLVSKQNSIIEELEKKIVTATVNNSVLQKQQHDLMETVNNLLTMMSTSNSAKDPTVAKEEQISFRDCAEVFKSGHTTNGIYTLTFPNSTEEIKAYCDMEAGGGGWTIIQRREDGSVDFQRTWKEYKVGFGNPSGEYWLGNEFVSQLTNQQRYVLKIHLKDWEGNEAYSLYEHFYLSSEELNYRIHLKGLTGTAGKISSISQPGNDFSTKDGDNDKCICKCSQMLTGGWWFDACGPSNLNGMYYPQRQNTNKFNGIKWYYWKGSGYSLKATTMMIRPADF
The experiment in a line: SPR, BIAcore T100; hAng2 (C-His) captured by anti-His antibody on CM5, antibody as analyte. How it is done: The binding affinity (KD values) of the antibodies to human Ang2 protein was measured by an SPR method using a BIAcore T100 (GE Healthcare). 25 μg/ml anti-His antibody was immobilized on a CM5 sensor chip (GE healthcare) using a pH 5.0 acetate solution and an amine coupling kit (GE Healthcare). 6 μg/ml of a recombinant hAng2 (C-His, R&D Systems) protein was flowed onto the chip to be captured at 100 to 200 RU levels.
In general terms: In SPR one partner is held on a chip, and binding of the other changes the refractive index at the surface.

Experiment [2] has as its target T2, c-Met-Fc (#358-MT/CF, R&D Systems) (human, UniProt P08581 25-932).
T2 construct: also called human c-Met/Fc fusion protein (R&D Systems); human c-Met/Fc protein; not shown: Fc part
The experiment in a line: SPR, Biacore T100; bispecific antibody captured by human Fab binder on CM5, c-Met-Fc as analyte. How it is done: The binding affinity of the anti-c-Met/anti-Ang2 bispecific antibody prepared in Example 1 to c-Met was measured using Biacore T100(GE). For this, a human Fab binder (#28-9583-25, GE Healthcare) was fixed on the surface of CM5 chip (#BR-1005-30, GE) according to manufacturer's manual. About 90˜120 RU of the anti-c-Met/anti-Ang2 bispecific antibody was captured and then, c-Met-Fc (#358-MT/CF, R&D Systems) was added to the captured antibody at various concentrations. Hereto, 10 mM Glycine-HCl (pH 1.5) solution was added, to regenerate the surface. To measure the affinity, the above obtained data were fitted using BIAevaluation software (GE Healthcare, Biacore T100 evaluation software).

Experiment [3] concerns the target T1, recombinant hAng-2 (C-His, R&D Systems). In words: SPR, Biacore T100; C-terminal His-tagged human Ang2 captured by anti-histidine antibody on CM5, MA01 as analyte. How it is done:
The binding affinity of the anti-c-Met/anti-Ang2 bispecific antibody prepared in Example 1 to Ang2 was measured using Biacore T100(GE). For this, an anti-histidine antibody (R&D Systems) was fixed on the surface of CM5 chip (#BR-1005-30, GE) according to manufacturer's manual. C-terminal histidine-tagged human Ang2 (R&D Systems) was captured and then, anti-c-Met/anti-Ang2 bispecific antibody MA01 was added to the captured antigen (Ang2) at various concentrations. Hereto, 10 mM Glycine-HCl (pH 1.5) solution was added, to regenerate the surface. To measure the affinity, the above obtained data were fitted using BIAevaluation software (GE Healthcare, Biacore T100 evaluation software).

The experiment “FLAG-tagged hAng-2” deals with B5. The experiment in a line: Ang2-Tie2 competition ELISA: plate coated with hTie2-Fc, 400 ng/ml FLAG-tagged hAng-2 with antibody at varied concentration, detection with anti-FLAG-HRP; blocked ligand/receptor: hTie2-Fc. On the procedure: More specifically, MaxiSorp™ flat-bottom plate (Nunc) of 96-well was coated with hTie2-Fc (R&D Systems) which is a protein bound with 4 μg/ml of Fc of human IgG1. After that, the plate was washed five times with 0.05% (v/v) Tween-20-containing PBS (phosphate buffer saline) and then blocked with 1% (v/v) BSA (bovine serum albumin; Sigma)-containing PBS at a room temperature for 2 hour.
For Ang2:Tie2 competition ELISA, each anti-Ang2 antibody obtained in Example 2 was placed at various concentrations of 400 nM-0.001 nM into each well coated with the hTie-2/Fc fusion protein along with 1% (v/v) BSA and 400 ng/ml of a FLAG-tagged hAng-2 and then, the plate was allowed to react at a room temperature for 2 hours and washed five times with PBST. After that, an anti-FLAG antibody (Sigma) conjugated with HRP diluted in 1% (v/v) BSA-containing PBS at a ratio of 1:5,000 (v/v) was added in an amount of 100 μl to each well to react at a room temperature for 1 hour and then, the plate was washed five times with PBST. Lastly, 100 μl of TMB substrate (Cell Signaling) was added to each well of the plate to induce color development for 3 min. and then, the reaction was ceased by the addition of 100 μl of Stop solution (Cell Signaling) and OD450 values were measured on a plate reader (Molecular Devices). […]
On the technique in general: ELISA stands for enzyme-linked immunosorbent assay.

Another experiment has as its target T3, BSA (Bos taurus, UniProt P02769).
T3 construct: commercial preparation; also called Bovine serum albumin; Sigma
In words: Complex ELISA: plate coated with BSA, FLAG-Ang2 0.25 ug/ml shown by 10D6 2 ug/ml and anti-mouse IgG-HRP, OD450. How it is done: (§1) A 96-well MaxiSorp™ flat-bottom plate (Nunc) was coated with 4 μg/ml of Tie2-Fc (R&D systems) or BSA (Sigma). Then, the plate was washed five times with 0.05% (v/v) Tween-20-containing PBS (Phosphate Buffer Saline) and blocked with 1% (v/v) BSA (Bovine serum albumin; Sigma)-containing PBS at a room temperature for 2 hours. 0.25 μg/ml of Ang2 and 2 μg/ml of 10D6 antibody were added to each well of the plate, which was allowed to react at a room temperature for 2 hours and then washed five times with PBST. After that, an anti-mouse IgG antibody (Sigma) conjugated with HRP diluted in 1% (v/v) BSA-containing PBS at a ratio of 1:5,000 (v/v) was added in an amount of 100 ul to each well to react at a room temperature for 1 hour and then, the plate was washed five times with PBST. Lastly, 100 ul (microliter) of TMB substrate (Cell Signaling) was added to each well of the plate to induce color development for 3 min. and then, the reaction was ceased by the addition of 100 ul of Stop solution (Cell Signaling) and OD450 values were measured on a plate reader (Molecular Devices).

The next experiment has as its target T4, hTie2-Fc (R&D Systems) (human, UniProt Q02763 23-745).
T4 construct: Bought fusion protein; also called hTie-2/Fc fusion protein; not shown: Fc of human IgG1
In words: ELISA, Tie2-Fc coated, Ang2 and 10D6 added, detected with anti-mouse IgG-HRP. How it is done: as §1

T2 sequence (P08581 25-932 limits assumed): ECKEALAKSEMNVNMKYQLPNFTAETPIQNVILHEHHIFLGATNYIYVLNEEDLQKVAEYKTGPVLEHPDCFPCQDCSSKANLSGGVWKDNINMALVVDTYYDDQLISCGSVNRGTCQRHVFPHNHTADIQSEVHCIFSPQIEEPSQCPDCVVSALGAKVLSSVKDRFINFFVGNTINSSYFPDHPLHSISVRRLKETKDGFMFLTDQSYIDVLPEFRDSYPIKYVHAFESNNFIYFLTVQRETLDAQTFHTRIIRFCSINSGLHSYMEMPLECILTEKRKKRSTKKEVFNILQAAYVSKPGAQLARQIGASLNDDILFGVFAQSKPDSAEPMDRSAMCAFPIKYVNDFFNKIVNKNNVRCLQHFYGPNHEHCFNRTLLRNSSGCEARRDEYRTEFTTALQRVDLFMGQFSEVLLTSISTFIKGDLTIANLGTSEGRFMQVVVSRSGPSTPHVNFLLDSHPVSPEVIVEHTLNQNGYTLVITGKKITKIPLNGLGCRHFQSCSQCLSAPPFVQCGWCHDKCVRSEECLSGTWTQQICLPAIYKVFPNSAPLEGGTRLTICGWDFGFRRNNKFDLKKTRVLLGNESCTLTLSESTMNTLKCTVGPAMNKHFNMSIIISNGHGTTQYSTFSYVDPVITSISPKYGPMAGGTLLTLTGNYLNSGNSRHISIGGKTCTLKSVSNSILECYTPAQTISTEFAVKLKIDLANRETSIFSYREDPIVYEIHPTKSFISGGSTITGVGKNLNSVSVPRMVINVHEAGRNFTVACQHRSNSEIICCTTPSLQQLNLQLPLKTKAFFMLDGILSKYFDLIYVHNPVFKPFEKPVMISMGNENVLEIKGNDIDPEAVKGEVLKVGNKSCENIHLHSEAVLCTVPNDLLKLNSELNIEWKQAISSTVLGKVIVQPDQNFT
T3 sequence (P02769 25-607 limits assumed): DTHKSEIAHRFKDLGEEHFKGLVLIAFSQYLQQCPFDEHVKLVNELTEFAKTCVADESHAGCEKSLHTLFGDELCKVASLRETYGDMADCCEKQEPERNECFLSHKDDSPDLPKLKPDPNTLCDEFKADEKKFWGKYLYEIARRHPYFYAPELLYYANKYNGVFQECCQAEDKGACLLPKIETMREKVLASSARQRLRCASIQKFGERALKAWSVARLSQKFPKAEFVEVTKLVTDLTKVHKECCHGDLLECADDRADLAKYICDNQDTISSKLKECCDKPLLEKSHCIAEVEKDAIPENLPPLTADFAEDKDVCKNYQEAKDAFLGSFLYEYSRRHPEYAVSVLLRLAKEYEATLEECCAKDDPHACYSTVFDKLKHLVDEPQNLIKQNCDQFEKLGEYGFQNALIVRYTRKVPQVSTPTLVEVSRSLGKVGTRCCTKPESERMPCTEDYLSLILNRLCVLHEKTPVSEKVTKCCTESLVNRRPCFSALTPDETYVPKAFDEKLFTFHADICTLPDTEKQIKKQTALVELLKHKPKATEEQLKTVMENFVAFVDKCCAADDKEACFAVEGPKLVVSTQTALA
T4 sequence (Q02763 23-745 limits assumed): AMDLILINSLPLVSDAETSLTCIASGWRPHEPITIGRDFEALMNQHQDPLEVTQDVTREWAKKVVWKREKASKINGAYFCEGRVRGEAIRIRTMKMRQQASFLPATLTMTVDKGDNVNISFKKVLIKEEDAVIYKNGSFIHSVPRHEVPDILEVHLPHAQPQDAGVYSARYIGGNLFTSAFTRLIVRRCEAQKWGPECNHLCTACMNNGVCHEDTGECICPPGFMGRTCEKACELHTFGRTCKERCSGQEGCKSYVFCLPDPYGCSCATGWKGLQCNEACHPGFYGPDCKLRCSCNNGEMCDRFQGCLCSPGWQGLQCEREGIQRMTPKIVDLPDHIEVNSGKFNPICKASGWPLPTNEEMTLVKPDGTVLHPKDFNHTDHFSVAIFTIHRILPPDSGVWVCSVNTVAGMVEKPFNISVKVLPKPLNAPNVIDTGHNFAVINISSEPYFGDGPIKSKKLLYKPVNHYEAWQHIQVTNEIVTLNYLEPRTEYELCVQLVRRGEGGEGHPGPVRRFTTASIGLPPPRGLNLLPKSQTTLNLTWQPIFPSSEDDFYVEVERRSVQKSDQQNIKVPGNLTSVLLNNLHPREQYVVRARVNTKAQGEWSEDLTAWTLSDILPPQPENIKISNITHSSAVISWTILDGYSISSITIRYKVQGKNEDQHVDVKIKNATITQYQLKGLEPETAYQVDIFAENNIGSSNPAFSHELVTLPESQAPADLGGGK

B1: h10D6-OPTI-68 (antibody, human IgG1, V domains shown)
VH: EVQLVESGGGLVQPGGSLRLSCAASGYSITSDYAWNWVRQAPGKGLEWMGKISYSGKTDYNPSLKSRSTISRDTSKNTFYLQMNSLRAEDTAVYYCARGNFEGAMDYWGQGTLVTVSS
VL: DIQMTQSPSSLSASVGDRVTITCKASQFVSTDVHWYQQKPGKAPKLLIYYASNRYPGVPSRFSGSGSGTDFTLTISSLQPEDFATYYCQQDYSSPWTFGQGTKLEIK
For B1, in experiment [1], the equilibrium dissociation constant (Kd) was 0.317 nM, the off-rate constant (koff) turned out to be 0.00017 s⁻¹ and the on-rate (kon) is 536000 M⁻¹ s⁻¹.

B2: h10D6-OPTI-70 (antibody, human IgG1, V domains shown)
VH: EVQLVESGGGLVQPGGSLRLSCAASGYSITSDYAWNWVRQAPGKGLEWMGKISYSGKTDYNPSLKSRSTISRDTSKNTFYLQMNSLRAEDTAVYYCARGNFEGAMDYWGQGTLVTVSS
VL: DIQMTQSPSSLSASVGDRVTITCKASQSVSNDVAWYQQKPGKAPKLLIYYASIPYPGVPSRFSGSGSGTDFTLTISSLQPEDFATYYCQQDYSSPWTFGQGTKLEIK
Take B2: in experiment [1], the equilibrium dissociation constant (Kd) stood at 0.437 nM, the off-rate constant (koff) is 0.000116 s⁻¹ and the kon was 265000 M⁻¹ s⁻¹.

B3: anti-c-Met/anti-Ang2 bispecific antibody MA01 (bispecific antibody, human IgG2, kappa)
heavy: EVQLVESGGGLVQPGGSLRLSCAASGFTFTDYYMSWVRQAPGKGLEWLGFIRNKANGYTTEYSASVKGRFTISRDNSKNTLYLQMNSLRAEDTAVYYCARDNWFAYWGQGTLVTVSSASTKGPSVFPLAPCSRSTSESTAALGCLVKDYFPEPVTVSWNSGALTSGVHTFPAVLQSSGLYSLSSVVTVPSSNFGTQTYTCNVDHKPSNTKVDKTVERKCCVECPPCPAPPVAGPSVFLFPPKPKDTLMISRTPEVTCVVVDVSHEDPEVQFNWYVDGVEVHNAKTKPREEQFNSTFRVVSVLTVVHQDWLNGKEYKCKVSNKGLPAPIEKTISKTKGQPREPQVYTLPPSREEMTKNQVSLTCLVKGFYPSDIAVEWESNGQPENNYKTTPPMLDSDGSFFLYSKLTVDKSRWQQGNVFSCSVMHEALHNHYTQKSLSLSPGKGGGGSGGGGSQVQLQESGPGLVKPSETLSLTCAVSGYSITSDYAWNWIRQPPGKGLEWMGKISYSGKTDYNPSLKSRSTISRDTSKNQFSLKLSSVTAADTAVYYCARGNFEGAMDYWGQGTLVTVSSGGGGSGGGGSGGGGSDIQMTQSPSSLSASVGDRVTITCKASQSVSNDVAWYQQKPGKAPKLLIYYASNRYPGVPSRFSGSGSGTDFTLTISSLQPEDFATYYCQQDYSSPWTFGGGTKLEIK
light: DIQMTQSPSSLSASVGDRVTITCKSSQSLLASGNQNNYLAWYQQKPGKAPKMLIIWASTRVSGVPSRFSGSGSGTDFTLTISSLQPEDFATYYCQQSYSRPYTFGQGTKVEIKRTVAAPSVFIFPPSDEQLKSGTASVVCLLNNFYPREAKVQWKVDNALQSGNSQESVTEQDSKDSTYSLSSTLTLSKADYEKHKVYACEVTHQGLSSPVTKSFNRGEC
For the molecule B3, the dissociation constant (Kd) in experiment [2] was 0.07 nM. Further, in experiment [3], the dissociation constant Kd worked out at 71.6 nM, the dissociation rate constant (koff) is 0.00648 s⁻¹ and the kon stood at 90500 M⁻¹ s⁻¹.

B4: 4H10 (antibody, V domains shown)
VH: EVQLLESGGGLVQPGGSLRLSCAASGFTFSSYDMSWVRQAPGKGLEWVSLISPDSSSIYYADSVKGRFTISRDNSKNTLYLQMNSLRAEDTAVYYCAKDLISFWRGGFDYWGQGTLVTVSS
VL: QSVLTQPPSASGTPGQRVTISCSGSSSNIGSNYVNWYQQLPGTAPKLLIYADSNRPSGVPDRFSGSKSGTSASLAISGLRSEDEADYYCGSWDYSLSGYVFGGGTKLTVLG
notes: also called anti-Ang2 antibody 4H10
Turning to B4, the “IC50 (read off the curve)” value with FLAG-tagged hAng-2 is approximately 0.2 nM.

For B5, the binding result in the experiment with BSA was “no binding (tested: 0.25 ug/ml)”.

B6: Ang2 protein (R&D systems) (ligand)
chain: YNNFRKSMDSIGKKQYQVQHGSCSYTFLLPEMDNCRSSSSPYVSNAVQRDAPLEYDDSVQRLQVLENIMENNTQWLMKLENYIQDNMKKEMVEIQQNAVQNQTAVMIEIGTNLLNQTAEQTRKLTDVEAQVLNQTTRLELQLLEHSLSTNKLEKQILDQTSEINKLQDKNSFLEKKVLAMEDKHIIQLQSIKEEKDQLQVLVSKQNSIIEELEKKIVTATVNNSVLQKQQHDLMETVNNLLTMMSTSNSAKDPTVAKEEQISFRDCAEVFKSGHTTNGIYTLTFPNSTEEIKAYCDMEAGGGGWTIIQRREDGSVDFQRTWKEYKVGFGNPSGEYWLGNEFVSQLTNQQRYVLKIHLKDWEGNEAYSLYEHFYLSSEELNYRIHLKGLTGTAGKISSISQPGNDFSTKDGDNDKCICKCSQMLTGGWWFDACGPSNLNGMYYPQRQNTNKFNGIKWYYWKGSGYSLKATTMMIRPADF
notes: Ang2 as used in the hybridoma screen, the HUVEC assays and the complex ELISA; also called human Ang2 protein; Human Ang-2 protein
On to B6, for which, in the experiment with hTie2-Fc (R&D Systems), the binding result is listed as “binds”.

These data come from US20160053025A1 (SAMSUNG ELECTRONICS, published 2016).
